40 molecules from patent US20260242478A1 (published 2026) can be followed below.

The target of test [1] is T1, Anti-PSMA Fab (006 PSMA Fab) (biotinylated (site not stated)).
T1 construct: Biotinylated PSMA Fab captured on neutravidin coated plates
The test is described as follows: clonal phage ELISA on PSMA Fab pre-incubated with PSMA antigen as competitor, anti-M13 HRP detection.

Test [2] concerns the target T1, Anti-PSMA Fab (006 PSMA Fab). In words: clonal phage ELISA, biotinylated PSMA Fab on neutravidin plates, anti-M13 HRP detection.
Description: (§1) Clonal phage were harvested as crude supernatants and screened via standard ELISAs. […] Prior to the addition of clonal phage. wells were incubated with blocking buffer and PSMA antigen or blocking buffer alone. Without washing or aspirating, clonal phage supernatants were then added to the wells and incubated for a short time. Wells were then washed followed by detection of bound phage using a horse radish conjugated anti-M13 antibody.
Test [3] has as its target T2, PSMA Fab.
T2 construct: Biotinylated and captured on neutravidin plates in the phage ELISA; also called Anti-PSMA Fab; 006 PSMA Fab
The test is described as follows: clonal phage ELISA on captured PSMA Fab pre-incubated with PSMA antigen (competitor).
Description: as §1

Test [4] addresses T2, PSMA Fab. In words: clonal phage ELISA on biotinylated PSMA Fab captured on neutravidin, anti-M13 HRP detection.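 Also: crude clonal phage supernatants added to wells pretreated with PSMA antigen in blocking buffer or with blocking buffer only, then briefly incubated.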
Description: as §1
The target of test [5] is T3, PSMA Fab (006 PSMA Fab).
T3 construct: also called Anti-PSMA Fab; anti-PSMA Fab
In words: clonal phage ELISA; biotinylated PSMA Fab on neutravidin plate, blocking buffer alone; anti-M13 HRP detection.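 Also: crude clonal phage supernatants added without washing to wells pretreated with blocking buffer with or without PSMA antigen, short incubation, then washed before detecting bound phage.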
Description: as §1

For test [6], the target named is T3, PSMA Fab (006 PSMA Fab). The test is described as follows: clonal phage ELISA; biotinylated PSMA Fab on neutravidin plate, wells pre-incubated with PSMA antigen (competitor); anti-M13 HRP detection.
Description: as §1
Test [7] addresses T4, PSMA Fab (006 PSMA Fab).
T4 construct: also called Anti-PSMA Fab; anti-PSMA Fab
In words: phage ELISA; biotinylated PSMA Fab on neutravidin plate, clonal phage supernatant, anti-M13 HRP detection; blocking buffer alone.
Description: as §1

Test [8] concerns the target T4, PSMA Fab (006 PSMA Fab). The test is described as follows: phage ELISA; biotinylated PSMA Fab on neutravidin plate pre-incubated with PSMA antigen as competitor, clonal phage supernatant, anti-M13 HRP detection.
Description: as §1

On to QWLRCEPEWMCIGF [Phage-3012], for which the “Phage binding ELISA signal, Anti-PSMA Fab with PSMA antigen” value in test [1] was 0.212. For the same molecule, in test [2], the “Phage binding ELISA signal, Anti-PSMA Fab” value was 2.21.

B1: Phage-3042 (peptide)
peptide: YTMVCRPAWMCQGF
notes: Peptide-180 library clone, tested as clonal phage supernatant (pIII display)
Consider B1, for which the “Phage binding ELISA signal, Anti-PSMA Fab with PSMA antigen” value in test [3] was determined as 0.0964. Further, the “Phage binding ELISA signal, Anti-PSMA Fab” value in test [4] was determined as 2.17.

In the case of VQGVCVPSWMCTGF [Phage-3017], the “Phage binding ELISA signal, Anti-PSMA Fab with PSMA antigen” value in test [1] is 0.0875. In addition, in test [2], the “Phage binding ELISA signal, Anti-PSMA Fab” value amounted to 2.2.

WEILCKPEWMCSGF [Phage-3031]: the “Phage binding ELISA signal, Anti-PSMA Fab” value in test [5] turned out to be 2.19. Also, in test [6], the “Phage binding ELISA signal, Anti-PSMA Fab in presence of PSMA antigen” value is 0.105.

As to DHLMCKPSWMCKGF [Phage-3022], in test [5], the “Phage binding ELISA signal, Anti-PSMA Fab” value stood at 2.19. The “Phage binding ELISA signal, Anti-PSMA Fab in presence of PSMA antigen” value in test [6] amounted to 0.0924.

Consider IESRCVPEWMCYGF [Phage-3019], for which, in test [5], the “Phage binding ELISA signal, Anti-PSMA Fab” value was 2.2. For the same molecule, in test [6], the “Phage binding ELISA signal, Anti-PSMA Fab in presence of PSMA antigen” value was 0.0726.

B2: Phage-3045 (peptide)
peptide: VIGWCVPQWMCSGF
notes: as for B1
Take B2: the “Phage binding ELISA signal, Anti-PSMA Fab with PSMA antigen” value in test [3] turned out to be 0.113. The “Phage binding ELISA signal, Anti-PSMA Fab” value in test [4] amounted to 2.17.

As to STMMCVPPWMCMGF [Phage-3013], the “Phage binding ELISA signal, Anti-PSMA Fab with PSMA antigen” value in test [1] was 0.0775. Besides, the “Phage binding ELISA signal, Anti-PSMA Fab” value in test [2] turned out to be 2.21.

With GGLRCEPMWMCHGF [Phage-3021], the “Phage binding ELISA signal, Anti-PSMA Fab” value in test [5] amounted to 2.2. The “Phage binding ELISA signal, Anti-PSMA Fab in presence of PSMA antigen” value in test [6] amounted to 0.122.

For WEPVCKPDWMCNGF [Phage-3011], the “Phage binding ELISA signal, Anti-PSMA Fab with PSMA antigen” value in test [1] is 0.08. Also, the “Phage binding ELISA signal, Anti-PSMA Fab” value in test [2] came out at 2.21.

Consider PLVVCKPAWMCIGF [Phage-3025], for which, in test [5], the “Phage binding ELISA signal, Anti-PSMA Fab” value came out at 2.19. Moreover, the “Phage binding ELISA signal, Anti-PSMA Fab in presence of PSMA antigen” value in test [6] was determined as 0.0979.

B3: Phage-3038 (peptide)
peptide: VEPQCRPAWMCYGF
notes: as for B1
In the case of B3, the “Phage binding ELISA signal, Anti-PSMA Fab with PSMA antigen” value in test [3] came to 0.0668. The “Phage binding ELISA signal, Anti-PSMA Fab” value in test [4] came out at 2.18.

As for EEKMCTPQWMCSGF [Phage-3020], the “Phage binding ELISA signal, Anti-PSMA Fab” value in test [5] was 2.2. For the same molecule, the “Phage binding ELISA signal, Anti-PSMA Fab in presence of PSMA antigen” value in test [6] worked out at 0.0688.

B4: Phage-3037 (peptide)
peptide: PAVRCEPSWMCQGF
notes: as for B1
Regarding B4, the “Phage binding ELISA signal, Anti-PSMA Fab with PSMA antigen” value in test [3] was 0.161. Also, the “Phage binding ELISA signal, Anti-PSMA Fab” value in test [4] was determined as 2.18.

B5: Phage-3048 (peptide)
peptide: PGHVCRPAWMCEGF
notes: Peptide-180 library clone, tested as clonal phage supernatant (peptide fused to pIII of the bacteriophage)
B5: the “Phage binding ELISA signal, Anti-PSMA Fab” value in test [7] turned out to be 2.17. Also, in test [8], the “Phage binding ELISA signal, Anti-PSMA Fab in the presence of PSMA antigen” value worked out at 0.106.

Turning to AELLCVPTWMCMGF [Phage-3014], the “Phage binding ELISA signal, Anti-PSMA Fab with PSMA antigen” value in test [1] turned out to be 0.0679. The “Phage binding ELISA signal, Anti-PSMA Fab” value in test [2] is 2.2.

B6: Phage-3041 (peptide)
peptide: EHLRCVPDWMCVGF
notes: as for B1
Turning to B6, the “Phage binding ELISA signal, Anti-PSMA Fab with PSMA antigen” value in test [3] amounted to 0.0886. Also, in test [4], the “Phage binding ELISA signal, Anti-PSMA Fab” value turned out to be 2.17.

B7: Phage-3034 (peptide)
peptide: YAHICKPSWMCDGF
notes: as for B1
With B7, in test [3], the “Phage binding ELISA signal, Anti-PSMA Fab with PSMA antigen” value worked out at 0.108. Further, the “Phage binding ELISA signal, Anti-PSMA Fab” value in test [4] amounted to 2.18.

B8: Phage-3047 (peptide)
peptide: VGNMCVPEWMCVGF
notes: as for B5
For B8, the “Phage binding ELISA signal, Anti-PSMA Fab” value in test [7] turned out to be 2.17. In addition, the “Phage binding ELISA signal, Anti-PSMA Fab in the presence of PSMA antigen” value in test [8] is 0.0878.

As for PAEWCIPVWMCTGF [Phage-3015], the “Phage binding ELISA signal, Anti-PSMA Fab with PSMA antigen” value in test [1] was determined as 0.0732. Moreover, the “Phage binding ELISA signal, Anti-PSMA Fab” value in test [2] worked out at 2.2.

B9: Phage-3033 (peptide)
peptide: ELLMCRPAWMCDGF
notes: as for B1
For the molecule B9, the “Phage binding ELISA signal, Anti-PSMA Fab with PSMA antigen” value in test [3] turned out to be 0.087. Also, the “Phage binding ELISA signal, Anti-PSMA Fab” value in test [4] turned out to be 2.18.

HEAMCRPTWMCHGF [Phage-3018]: the “Phage binding ELISA signal, Anti-PSMA Fab” value in test [5] worked out at 2.2. Moreover, in test [6], the “Phage binding ELISA signal, Anti-PSMA Fab in presence of PSMA antigen” value is 0.0722.

B10: Phage-3044 (peptide)
peptide: SLAVCKPSWMCAGF
notes: as for B1
In the case of B10, the “Phage binding ELISA signal, Anti-PSMA Fab with PSMA antigen” value in test [3] came to 0.0813. Further, the “Phage binding ELISA signal, Anti-PSMA Fab” value in test [4] is 2.17.

B11: Phage-3035 (peptide)
peptide: LMPLCVPVWMCSGF
notes: as for B1
As to B11, in test [3], the “Phage binding ELISA signal, Anti-PSMA Fab with PSMA antigen” value amounted to 0.106. Moreover, in test [4], the “Phage binding ELISA signal, Anti-PSMA Fab” value was determined as 2.18.

Regarding EGVVCIPEWMCKGF [Phage-3032], the “Phage binding ELISA signal, Anti-PSMA Fab with PSMA antigen” value in test [3] was 0.0637. Besides, the “Phage binding ELISA signal, Anti-PSMA Fab” value in test [4] turned out to be 2.18.

B12: Phage-3036 (peptide)
peptide: IIPACVPPWMCSGF
notes: as for B1
Turning to B12, in test [3], the “Phage binding ELISA signal, Anti-PSMA Fab with PSMA antigen” value turned out to be 0.212. Moreover, the “Phage binding ELISA signal, Anti-PSMA Fab” value in test [4] amounted to 2.18.

B13: Phage-3049 (peptide)
peptide: VNVKCTPPWMCFGF
notes: as for B5
For the molecule B13, in test [7], the “Phage binding ELISA signal, Anti-PSMA Fab” value was 2.16. In test [8], the “Phage binding ELISA signal, Anti-PSMA Fab in the presence of PSMA antigen” value is 0.0865.

In the case of DSIMCRPAWMCAGF [Phage-3029], in test [5], the “Phage binding ELISA signal, Anti-PSMA Fab” value amounted to 2.19. The “Phage binding ELISA signal, Anti-PSMA Fab in presence of PSMA antigen” value in test [6] was 0.0945.

As to HHQLCKPLWMCEGF [Phage-3030], the “Phage binding ELISA signal, Anti-PSMA Fab” value in test [5] amounted to 2.19. The “Phage binding ELISA signal, Anti-PSMA Fab in presence of PSMA antigen” value in test [6] was found to be 0.13.

Take IERLCMPMWMCTGL [Phage-3024]: the “Phage binding ELISA signal, Anti-PSMA Fab” value in test [5] is 2.19. For the same molecule, the “Phage binding ELISA signal, Anti-PSMA Fab in presence of PSMA antigen” value in test [6] was 0.0679.

B14: Phage-3043 (peptide)
peptide: PTVYCKPEWMCTGF
notes: as for B1
Regarding B14, the “Phage binding ELISA signal, Anti-PSMA Fab with PSMA antigen” value in test [3] amounted to 0.0869. The “Phage binding ELISA signal, Anti-PSMA Fab” value in test [4] was 2.17.

B15: Phage-3046 (peptide)
peptide: VDKVCRPMWMCAGF
notes: as for B5
In the case of B15, the “Phage binding ELISA signal, Anti-PSMA Fab” value in test [7] came out at 2.17. The “Phage binding ELISA signal, Anti-PSMA Fab in the presence of PSMA antigen” value in test [8] was determined as 0.126.

B16: Phage-3040 (peptide)
peptide: DYPLCRPEWMCMGF
notes: as for B1
For B16, in test [3], the “Phage binding ELISA signal, Anti-PSMA Fab with PSMA antigen” value was 0.0813. Besides, the “Phage binding ELISA signal, Anti-PSMA Fab” value in test [4] was 2.18.

B17: Phage-3039 (peptide)
peptide: VHNWCVPSWMCLGL
notes: as for B1
B17: the “Phage binding ELISA signal, Anti-PSMA Fab with PSMA antigen” value in test [3] was 0.099. Further, the “Phage binding ELISA signal, Anti-PSMA Fab” value in test [4] was 2.18.

With VLPVCKPLWMCKGL [Phage-3027], the “Phage binding ELISA signal, Anti-PSMA Fab” value in test [5] is 2.19. Besides, in test [6], the “Phage binding ELISA signal, Anti-PSMA Fab in presence of PSMA antigen” value was determined as 0.234.

VDVLCVPSWMCSWL [Phage-3026]: the “Phage binding ELISA signal, Anti-PSMA Fab” value in test [5] stood at 2.19. For the same molecule, in test [6], the “Phage binding ELISA signal, Anti-PSMA Fab in presence of PSMA antigen” value was determined as 0.0683.

Turning to TVPKCVPNWMCDWL [Phage-3023], the “Phage binding ELISA signal, Anti-PSMA Fab” value in test [5] worked out at 2.19. Also, the “Phage binding ELISA signal, Anti-PSMA Fab in presence of PSMA antigen” value in test [6] is 0.0864.

As to ANVACIPPWMCLGF [Phage-3016], the “Phage binding ELISA signal, Anti-PSMA Fab with PSMA antigen” value in test [1] was 0.109. Besides, the “Phage binding ELISA signal, Anti-PSMA Fab” value in test [2] is 2.2.

B18: Phage-3050 (peptide)
peptide: ELYKCVPSWMCYGF
notes: as for B5
Take B18: in test [7], the “Phage binding ELISA signal, Anti-PSMA Fab” value came to 2.16. Moreover, the “Phage binding ELISA signal, Anti-PSMA Fab in the presence of PSMA antigen” value in test [8] was 0.0696.

In the case of DMRRCEPIWMCVGF [Phage-3028], the “Phage binding ELISA signal, Anti-PSMA Fab” value in test [5] came out at 2.19. The “Phage binding ELISA signal, Anti-PSMA Fab in presence of PSMA antigen” value in test [6] turned out to be 0.0954.
